Reference: article PMC7925540

Biological target: Vlp15/16 of B. miyamotoi HT31 (B. miyamotoi HT31)
Experiment: ELISA; Vlp15/16 (5 µg/ml) immobilised, increasing amounts of plasminogen (0 to 20 µM); non-linear regression, one-site specific binding model

## Human glu-plasminogen (natural protein)
  Kd: 354 nM
